Patent publication EP4682166A1 (Guangzhou Enmai Biotechnology Co., Ltd, dated 2026)

Tests used:
[1] = molecular target: T1, human NMI (N-myc Interacting protein), recombinant protein (human, UniProt Q13287 1-307, limits assumed); assay: sandwich ELISA; detection 39B4-1-biotin; hNMI 33.333 ng/mL
T1 construct: Gene ID: 9111; also called hNMI; antigen
T1 sequence (looked up): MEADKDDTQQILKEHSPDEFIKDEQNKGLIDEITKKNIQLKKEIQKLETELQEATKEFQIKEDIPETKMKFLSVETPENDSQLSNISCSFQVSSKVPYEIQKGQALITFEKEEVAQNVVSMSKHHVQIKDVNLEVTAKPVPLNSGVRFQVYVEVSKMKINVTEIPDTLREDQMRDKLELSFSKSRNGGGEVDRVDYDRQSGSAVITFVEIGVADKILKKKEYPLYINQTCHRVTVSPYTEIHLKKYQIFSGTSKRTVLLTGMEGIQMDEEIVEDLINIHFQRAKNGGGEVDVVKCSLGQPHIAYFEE

[2] = molecular target: T1, human NMI (N-myc Interacting protein), …; assay: sandwich ELISA; detection 98G10-1-biotin; hNMI 1.235 ng/mL
[3] = molecular target: T1, human NMI (N-myc Interacting protein), …; assay: sandwich ELISA; detection 98G10-1-biotin; hNMI 100.000 ng/mL
[4] = molecular target: T1, human NMI (N-myc Interacting protein), …; assay: sandwich ELISA; detection 94C4-1-biotin 1µg/mL; hNMI 97.656 pg/mL
[5] = molecular target: T1, human NMI (N-myc Interacting protein), …; assay: sandwich ELISA; detection 94C4-1-biotin 1µg/mL; hNMI 12,500.000 pg/mL
[6] = molecular target: T1, human NMI (N-myc Interacting protein), …; assay: sandwich ELISA; detection 94C4-1-biotin 1µg/mL; hNMI 25,000.000 pg/mL
[7] = molecular target: T1, human NMI (N-myc Interacting protein), …; assay: sandwich ELISA; detection 94C4-1-biotin 0.5µg/mL; hNMI 1,562.500 pg/mL
[8] = molecular target: T1, human NMI (N-myc Interacting protein), …; assay: sandwich ELISA; detection 94C4-1-biotin 0.5µg/mL; hNMI 12,500.000 pg/mL
[9] = molecular target: T1, human NMI (N-myc Interacting protein), …; assay: sandwich ELISA; detection 94C4-1-biotin 0.5µg/mL; hNMI 25,000.000 pg/mL
[10] = molecular target: T1, human NMI (N-myc Interacting protein), …; assay: sandwich ELISA; detection 94C4-1-biotin 0.5µg/mL; hNMI 50,000.000 pg/mL
[11] = molecular target: T1, human NMI (N-myc Interacting protein), …; assay: ELISA, binding to hNMI
[12] = molecular target: T2, NMI-flag overexpressed protein (293T cells transfected with the hNMI-flag plasmid) (human) (UniProt Q13287); assay: sandwich ELISA; detection 94C4-1-biotin; cell lysates of NMI-flag 293T, replicate 2
T2 sequence (looked up): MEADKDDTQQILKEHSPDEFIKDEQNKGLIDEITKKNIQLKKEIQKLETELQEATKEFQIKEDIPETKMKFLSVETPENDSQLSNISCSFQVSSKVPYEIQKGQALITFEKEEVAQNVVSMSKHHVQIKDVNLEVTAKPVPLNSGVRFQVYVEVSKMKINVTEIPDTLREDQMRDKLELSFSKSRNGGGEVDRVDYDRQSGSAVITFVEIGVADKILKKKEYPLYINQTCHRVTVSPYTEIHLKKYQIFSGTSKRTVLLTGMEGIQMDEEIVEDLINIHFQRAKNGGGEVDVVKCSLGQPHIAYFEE

[13] = molecular target: T2, NMI-flag overexpressed protein (293T cells transfected with the hNMI-flag plasmid) (human); assay: sandwich ELISA; detection 94C4-1-biotin; cell supernatant of NMI-flag 293T, replicate 2
[14] = molecular target: T3, human NMI (N-myc Interacting protein) (human) (UniProt Q13287); assay: magnetic-bead chemiluminescent sandwich; capture 98G10 beads (0.5 mg 98G10), detection acridinium-B-8; hNMI 50 pg/ml
T3 sequence (looked up): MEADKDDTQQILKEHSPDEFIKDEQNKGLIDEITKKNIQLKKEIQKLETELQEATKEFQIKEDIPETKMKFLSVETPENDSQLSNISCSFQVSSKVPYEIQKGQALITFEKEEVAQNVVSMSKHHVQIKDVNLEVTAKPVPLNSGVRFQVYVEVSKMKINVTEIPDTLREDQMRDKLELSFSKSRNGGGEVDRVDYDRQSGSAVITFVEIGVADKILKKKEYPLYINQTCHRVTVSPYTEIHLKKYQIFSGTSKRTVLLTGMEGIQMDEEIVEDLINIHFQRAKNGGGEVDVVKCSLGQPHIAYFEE

[15] = molecular target: T3, human NMI (N-myc Interacting protein) (human); assay: magnetic-bead chemiluminescent sandwich; capture 98G10 beads (0.5 mg 98G10), detection acridinium-B-8; hNMI 400 pg/ml
[16] = molecular target: T3, human NMI (N-myc Interacting protein) (human); assay: magnetic-bead chemiluminescent sandwich; capture 98G10 beads (1.0 mg 98G10), detection acridinium-B-8; hNMI 400 pg/ml
[17] = molecular target: T3, human NMI (N-myc Interacting protein) (human); assay: magnetic-bead chemiluminescent sandwich; capture 98G10 beads (0.5 mg 98G10), detection acridinium-B-8; hNMI 2000 pg/ml
[18] = molecular target: T3, human NMI (N-myc Interacting protein) (human); assay: magnetic-bead chemiluminescent sandwich; capture 98G10 beads, detection acridinium-B-8 (2.0 mg B-8 labelled); hNMI 100 pg/mL
[19] = molecular target: T3, human NMI (N-myc Interacting protein) (human); assay: magnetic-bead chemiluminescent sandwich; capture 98G10 beads, detection acridinium-B-8 (1.0 mg B-8 labelled); hNMI 2000 pg/mL
[20] = molecular target: T3, human NMI (N-myc Interacting protein) (human); assay: magnetic-bead chemiluminescent sandwich; capture 98G10 beads, detection acridinium-B-8 (2.0 mg B-8 labelled); hNMI 1000 pg/mL
[21] = molecular target: T3, human NMI (N-myc Interacting protein) (human); assay: magnetic-bead chemiluminescent sandwich; capture 98G10 beads, detection acridinium-B-8 (2.0 mg B-8 labelled); hNMI 2000 pg/mL
[22] = molecular target: T3, human NMI (N-myc Interacting protein) (human); assay: magnetic-bead chemiluminescent sandwich, kit of Example 8-1; capture 98G10 beads, detection acridinium-B-8; series 2, hNMI 50 pg/mL
[23] = molecular target: T3, human NMI (N-myc Interacting protein) (human); assay: magnetic-bead chemiluminescent sandwich, kit of Example 8-1; capture 98G10 beads, detection acridinium-B-8; series 3, hNMI 200 pg/mL
[24] = molecular target: T3, human NMI (N-myc Interacting protein) (human); assay: magnetic-bead chemiluminescent sandwich, kit of Example 8-1; capture 98G10 beads, detection acridinium-B-8; series 3, hNMI 4000 pg/mL

B1: monoclonal antibody 240B10-1 (antibody, V domains shown)
VH: QSLEESGGRLVTPGGSLTLTCTVSGIDLSSYTMGWVRQAPGKGLEYIGIISGGGRTYYASWAKGRFTISKTSSTTVDLKVTSLTTEDTATYFCARIYTLWGQGTLVTVSS
VL: QVLTQTLASVSAAVGGTVTINCQSSQSVYNNDYLAWFQQKSGQPPKQLIHSASKLASGVPSRFKGSGSGTQFTLTINDVQCDDAATYYCLGGYDCYSADCNVFGGGTEVVVK
notes: Rabbit monoclonal antibody
What does the source list for B1?
OD450 [1]: 2.67 OD450; OD450 [2]: 0.362 OD450; OD450 [3]: 3.14 OD450; OD450 [4]: 0.185 OD450; OD450 [5]: 2.17 OD450; OD450 [6]: 2.75 OD450; OD450 [7]: 0.907 OD450; OD450 [8]: 2.32 OD450; OD450 [9]: 2.94 OD450; OD450 [10]: 3.33 OD450

B2: monoclonal antibody B-8 (antibody, V domains shown)
VH: QSLEESGGDLVKPGASLTLTCTASGFSFSSSYYMCWVRQAPGKGLEWIACIYAGSSGSTYYASWAKGRFTISKTSSTTVTLQMTSLTAADTATYFCAREYSYDDYGDFWGFNLWGPGTLVTVSS
VL: ALVMTQTPSSVSAAVGGTVTINCQASQNIYTNLAWYQQKPGQPPKLLIYGASNLESGVPSRFKGSGSGTEYTLTISDLECDDAATYYCQSSLYSRIADRANAFGGGTEVVVK
notes: Rabbit monoclonal antibody; also called B8-1
For B2, which EC50 [11] is on record?
The EC50 was 0.309 nM.

What about the OD450 [1] of the same binder?
Its OD450 is 2.43 OD450.

What about the OD450 [2] of the same binder?
Its OD450 is 0.307 OD450.

What about the OD450 [3] of the same binder?
Its OD450 is 3.02 OD450.

What about the OD450 [4] of the same binder?
Its OD450 is 0.15 OD450.

And the OD450 [5]?
Its OD450 is 2.03 OD450.

And the OD450 [6]?
Its OD450 is 2.79 OD450.

And the OD450 [7]?
The OD450 was 0.42 OD450.

And the OD450 [8]?
Its OD450 is 2.03 OD450.

What about the OD450 [9] of the same binder?
Its OD450 is 2.71 OD450.

And the OD450 [10]?
The OD450 was 3.17 OD450.

And the OD450 [12]?
The OD450 was 2.9 OD450.

And the OD450 [13]?
The OD450 was 0.95 OD450.

B3: acridinium ester-labeled monoclonal antibody B-8 (antibody, V domains shown)
VH: QSLEESGGDLVKPGASLTLTCTASGFSFSSSYYMCWVRQAPGKGLEWIACIYAGSSGSTYYASWAKGRFTISKTSSTTVTLQMTSLTAADTATYFCAREYSYDDYGDFWGFNLWGPGTLVTVSS
VL: ALVMTQTPSSVSAAVGGTVTINCQASQNIYTNLAWYQQKPGQPPKLLIYGASNLESGVPSRFKGSGSGTEYTLTISDLECDDAATYYCQSSLYSRIADRANAFGGGTEVVVK
modifications: acridinium ester label on the antibody, site not stated
With B3 as the binder, how does the Signal value [14] read?
Its Signal value is 4560.

What about the Signal value [15] of the same binder?
The Signal value was 39900.

What about the Signal value [16] of the same binder?
Its Signal value is 86800.

And the Signal value [17]?
Its Signal value is 204000.

What about the Signal value [18] of the same binder?
The Signal value was 11900.

And the Signal value [19]?
Its Signal value is 204000.

What about the Signal value [20] of the same binder?
Its Signal value is 116000.

And the Signal value [21]?
The Signal value was 234000.

What about the Signal value [22] of the same binder?
Its Signal value is 6180.

What about the Signal value [23] of the same binder?
Its Signal value is 25700.

And the Signal value [24]?
The Signal value was 572000.
